Experiments:
Assay in all cases: purified protein
Assay type in all cases: biochemical, uncultured Acetothermia bacterium
Conditions in all cases: standard reaction: 25 mM Tris-HCl pH 8, 0.05% Triton X-100, 50 °C
purified protein [1] = substrate: CC(=O)Oc1ccc([N+](=O)[O-])cc1
purified protein [2] = substrate: CCCC(=O)Oc1ccc([N+](=O)[O-])cc1
purified protein [3] = substrate: CCCCCCCC(=O)Oc1ccc([N+](=O)[O-])cc1
purified protein [4] = substrate: CCCCCCCCCC(=O)Oc1ccc([N+](=O)[O-])cc1

B1: EstDZ2 (uncultured Acetothermia bacterium) (protein)
chain: APPFSFQVYTDVVYYDGPDAHPTKHRLDLFVPDGLQDAPVLIFVHGGGWTSGDKNLYAFIGQAFAAQGFATAVINYRLSPQVQHPAHIEDVARAFSWVYKNIARYGGNPEKIFVTGHSAGGHLTALLALDEKYLQAHGLTLAAIKGAIPISGVYDVTPVLALYRTVFGADPDQRWDASPLAHVGPNKPPFLILYAQFDFPGLGLQAQQLFAELRTHNNEATLTEIPNRDHVTIVATIGASNDPTTEEI
notes: predicted signal peptide (aa 2-21) replaced by N-terminal hexa-histidine tag, kept; E. coli BL21(DE3); Ni-NTA; monomer, ~29 kDa; HGGG and GHSAG motifs; primer encodes APPFSF after His tag
- Km (purified protein [1]): 670 ± 150 µM
- kcat/Km (purified protein [1]): 1.76e+06 M⁻¹ s⁻¹
- Km (purified protein [2]): 320 ± 90 µM
- kcat/Km (purified protein [2]): 1.44e+07 M⁻¹ s⁻¹
- Km (purified protein [3]): 200 ± 20 µM
- kcat/Km (purified protein [3]): 1.04e+07 M⁻¹ s⁻¹
- Km (purified protein [4]): 120 ± 10 µM
- kcat/Km (purified protein [4]): 7.55e+06 M⁻¹ s⁻¹

— article PMC5171882, “Metagenomic mining for thermostable esterolytic enzymes uncovers a new family of bacterial esterases” (Scientific Reports, 2016)
